The text below walks through data of patent EP4566632A1, “MSLN ANTIBODY-DRUG CONJUGATE” (priority 2022, dated 2024).

The assay relates to NCI-H226 cells. Briefly: Lung cancer NCI-H226 model. It is filed as in vivo, BALB/c Nude mouse. Conditions: tail vein, twice a week x5, day 28 post-administration. Here is the method:
NCI-H226 cells were cultured in a RPMI-1640 medium containing 10% fetal bovine serum at 37°C in a 5% CO2 atmosphere. On the day of inoculation, NCI-H226 cells in the exponential growth phase were collected. Tumor cells were first resuspended in a mixture of PBS and Matrigel (1:1) and then subcutaneously inoculated. Each BALB/c Nude mouse was subcutaneously inoculated with 5 × 10^6 NCI-H226 tumor cells. When the average tumor volume in each group of mice reached 150 mm^3, the mice were divided into groups for dosing. 55 mice were divided into 11 groups, after which dosing began. The dosing schedule was twice a week for a total of five administrations via tail vein injection at doses of 1 mg/kg body weight or 5 mg/kg body weight. After dosing began, body weight and tumor volume were measured twice weekly. Tumor volume was calculated using the formula of: Tumor Volume (mm^3) = 0.5 × Tumor long diameter × Tumor short diameter^2. Observations concluded on day 28 post-administration, followed by the euthanasia of all mice. Data analysis was performed using the t-test.

B1: BAY-949343: ADC developed by Bayer: anti-MSLN monoclonal antibody MF-T (anetumab) conjugated to maytansinoid DM4 via SPDB linker (conjugate, chains of the INN, looked up)
VH: QVELVQSGAEVKKPGESLKISCKGSGYSFTSYWIGWVRQAPGKGLEWMGIIDPGDSRTRYSPSFQGQVTISADKSISTAYLQWSSLKASDTAMYYCARGQLYGGTYMDGWGQGTLVTVSS
VL: DIALTQPASVSGSPGQSITISCTGTSSDIGGYNSVSWYQQHPGKAPKLMIYGVNNRPSGVSNRFSGSKSGNTASLTISGLQAEDEADYYCSSYDIESATPVFGGGTKLTVL
modifications: DM4 via SPDB linker (ravtansine)
Consider B1, for which the average tumor volume (1 mg/kg) is reported as 497 mm^3 and the average tumor volume (5 mg/kg) was found to be 253 mm^3. In addition, the “tumor growth inhibition rate (TGI, %)” value (1 mg/kg) was 68% and the “tumor growth inhibition rate (TGI, %)” value (5 mg/kg) is 84%.
